Measurements: patent US20240043507A1 (RQ BIOTECHNOLOGY, published 2024)

Assays:
Assay in all cases: cell-based or functional assay
[1] = target: spike protein of SARS-CoV-2 strain B.1.351 (SARS-CoV-2, UniProt P0DTC2 14-1273)
[2] = target: spike protein of SARS-CoV-2 strain P.1 (SARS-CoV-2, UniProt P0DTC2 14-1273)
[3] = target: spike protein of SARS-CoV-2 strain B.1.1.7 (SARS-CoV-2, UniProt P0DTC2 14-1273)
[4] = target: spike protein of SARS-CoV-2 strain Victoria (SARS-CoV-2/human/AUS/VIC01/2020) (SARS-CoV-2, UniProt P0DTC2 14-1273)
[5] = target: spike protein of SARS-CoV-2 strain Victoria (SARS-CoV-2/human/AUS/VIC01/2020) (SARS-CoV-2, UniProt P0DTC2 14-1273); remark: listed apart in the source
[6] = target: spike protein of SARS-CoV-2 strain B.1.351 (SARS-CoV-2, UniProt P0DTC2 14-1273); remark: listed apart in the source

Binder	IC50 (FRNT neutralisation) [1]	IC50 (FRNT neutralisation) [2]	IC50 (FRNT neutralisation) [3]	IC50 (FRNT neutralisation) [4]	FRNT50 ratio B.1.351/Victoria [1]	FRNT50 ratio P.1/Victoria [2]	FRNT50 ratio B.1.1.7/Victoria [3]	IC50 (FRNT, live virus neutralisation) [5]	IC50 (FRNT, live virus neutralisation) [6]
antibody 88 (antibody, V domains shown, also called mAb 88) VH: QLQLQESGPGLVKPSQTLSLTCTVSGGSISSGSYNWTWIRQPAGKGLEWIGRIYNSGSTNYNPSLKSRVTISVDTSKNQLSLKVRSVTAADTAVYYCARHCSGGTCYPKYYYGMDVWGQGTTVTVSS VL: QSALTQPPSVSEAPRQRVTISCSGSSSNIGNNAVNWYQQFPGKAPKLLIYYDDLLPSGVSDRFSGSKSGTSASLAISGVQSEDEADYYCAAWDDSLNVVVFGGGTKLTVL	> 10 µg/mL	> 10 µg/mL	0.058 µg/mL	0.033 µg/mL					
antibody 132 (antibody, V domains shown) VH: QVQLQQWGAGLLKPSETLSLTCAVYGGSFSGYYWSWIRQPPGKGLEWIGEINHSGSTNYNPSLKSRVTISVDTSKNQFSLKLSSVTAADTAVYYCARTDYYDSIDWGQGTLVTVSS VL: QSVLTQEPSLTVSPGGTVTLTCGSSTGAVTSGHYPYWFQQKPGQVPRTLIYDTRNKHSWTPARFSGSLLGGKAALTLSGAQPEDEAEYYCLLSSSGARVFGGGTKLTVL	> 10 µg/mL	> 10 µg/mL	0.337 µg/mL	0.048 µg/mL	> 208	> 208	7		
antibody 170 (antibody, V domains shown) VH: QVQLVESGAEVKKPGESLKISCKGSGYSFTSYWIVWVRQMPGKGLEWMGIIYPGDSDTKYSPSFQGQVSISADKPISTAYLQWSRLKASDTAMYYCARLGNWLVDYWGQGTLVTVSS VL: DIVMTQSPLSLSVTPGQPASISCKSSQSLLHSDGKTYLYWYLQKPGQPPQLLMYEVSNRFSGVPDRFSGSGSGTDFTLKISRVESEDVGVYYCMQSIQLPRGITFGQGTRLEIK								0.025 µg/mL	> 10 µg/mL
antibody 40 (antibody, V domains shown, also called mAb 40) VH: QVQLVESGGGLVQPGGSLRLSCAVSGFTVSRNYMSWVRQAPGKGLEWVSLIYSGGSTFYADSVKGRFTISRDNSKNTLYLQMNSLRAEDTAVYYCARDLFHRSGYHDYWGQGTLVTVSS VL: not shown	0.738 µg/mL	0.153 µg/mL	0.035 µg/mL	0.026 µg/mL					
antibody 316 (antibody, V domains shown) VH: not shown VL: QAVLTQPPSASGSPGQSVTISCTGTSSDVGGYNYVSWYQQHPGKAPKLMIYEVSKRPSGVPDRFSGSKSGNTASLTVSGLQAEDEADYYCSSYAGSNHWVFGGGTKLTVL								0.018 µg/mL	> 10 µg/mL
antibody 398 (antibody, V domains shown) VH: QVQLVESGGGLVQPGGSLRLSCAASGFTVSSNYMTWVRQAPGKGLEWVSVIYSGGSTYYADSVKGRFTISRDNSKNTLYLQMNSLRADDTAVYYCARDSTADYDFWSGYYVGAFHIWGQGTMVTVSS VL: QTVLTQPASVSGSPGQSITISCTGTSSDVGGYNYVSWYQQHPGKAPKLMIYEVTKRPSGVPDRFSGSKSGNTASLTVSGLQAEDEADYYCSSYAGSNNWVFGGGTKLTVL								0.091 µg/mL	> 10 µg/mL
antibody 281 (antibody, V domains shown) VH: QVQLVESGGGLVQPGGSLRLSCAASGFPFSIYWMSWVRQAPGKGLEWVANIKQDGSEKYYVDSVKGRFTISRDNAKNSLYLHMNSLRGEDTAVYYCASRYYDFRPEAWFDYWGQGTLVTVSS VL: not shown								0.005 µg/mL	> 10 µg/mL
antibody 165 (antibody, V domains shown) VH: QVQLVQSGPEVKKPGTSVKVSCKASGFTFTSSAVQWVRQARGQRLEWIGWIVVGSGNTNYAQKFQESVTITRDMSTSTAYMELSSLRSEDTAVYYCAAPHCIGGSCHDAFDIWGQGTMVTVSS VL: DIVMTQSPGTLSLSPGERATLSCRASQSVRSSYLAWYQQKPGQAPRLLIYGASRRGTGIPDRFSGSGSGTDFTLTISRLEPEDFAVYYCQQYGSSPWTFGQGTKVEIK								0.034 µg/mL	0.054 µg/mL
antibody 253H165L (antibody, V domains shown) VH: not shown VL: DIVMTQSPGTLSLSPGERATLSCRASQSVRSSYLAWYQQKPGQAPRLLIYGASRRGTGIPDRFSGSGSGTDFTLTISRLEPEDFAVYYCQQYGSSPWTFGQGTKVEIK	0.013 µg/mL	0.019 µg/mL	0.006 µg/mL	0.003 µg/mL					
antibody 165 (antibody, V domains shown, also called mAb 165) VH: QVQLVQSGPEVKKPGTSVKVSCKASGFTFTSSAVQWVRQARGQRLEWIGWIVVGSGNTNYAQKFQESVTITRDMSTSTAYMELSSLRSEDTAVYYCAAPHCIGGSCHDAFDIWGQGTMVTVSS VL: DIVMTQSPGTLSLSPGERATLSCRASQSVRSSYLAWYQQKPGQAPRLLIYGASRRGTGIPDRFSGSGSGTDFTLTISRLEPEDFAVYYCQQYGSSPWTFGQGTKVEIK	0.054 µg/mL	0.241 µg/mL	0.212 µg/mL	0.034 µg/mL					
antibody 269 (antibody, V domains shown) VH: QVQLVESGGGLIQPGGSLRLSCAASGLTVNRNYMSWIRQAPGKGLEWVSVIYSGGSTFYADSVKGRFTISRDNSKNTLSLQMNSLRAEDTAIYYCARDFYEGSFDIWGQGTMVTVSS VL: AIQLTQSPSFLSASIGDRVTITCRASQGISSYLAWYQQKPGKAPKLLIYAASTLQSGVPSRFSGSGSGTEFTLTISSLQPEDFASYYCQQLNSYPAPVFGPGTKVDIK								0.03 µg/mL	> 10 µg/mL
antibody 222 (antibody, V domains shown) VH: EVQLVESGGGLIQPGGSLRLSCAASGLTVSSNYMSWVRQAPGKGLEWVSVIYSGGSTFYADSVKGRFTISRDNSKNTLYLQMNSLGAEDTAVYYCARGEGSPGNWFDPWGQGTLVTVSS VL: DVVMTQSPGTLSLSPGERATLSCRASQSVPSSYLAWYQQKPGQAPRLLIYGASTRATGIPDRFSGSGSGTDFTLTISRLEPEDFAVYYCQHYDTSPRFGGGTKVDIK								0.019 µg/mL	0.017 µg/mL
antibody 175 (antibody, V domains shown) VH: EVQLVESGGGLIQPGGSLRLSCAASGLTVSRNYMSWVRQAPGKGLEWVSLIYSGGSTYYADSVKGRFTISRDNSKNTLYLQMNSLRAEDTAVYYCARDLRGEVWGQGTMVTVSS VL: not shown								0.026 µg/mL	> 10 µg/mL
antibody 150 (antibody, V domains shown) VH: QVQLVESGGGLIQPGGSLRLSCAASGVTVSSNYMSWVRQAPGKGLEWVSIIYSGGTTYYADSVKGRFTISRDSSMNTLYLQMNSLRAEDTAVYYCARDLMVYGIDVWGQGTTVTVSS VL: EIVMTQSPSSLSASVGDRVTITCRASQGISSYLAWYQQKPGKAPKLLIYAASTLQSGVPSRFSGSGSGTDFTLTISSLQPEDFATYYCQQLDSYPPGYTFGQGTKVDIK	0.35 µg/mL	0.04 µg/mL	0.139 µg/mL	0.012 µg/mL	30	3.4	12		
antibody 278 (antibody, V domains shown) VH: QVQLVQSGAEVKKPGASVKVSCKASGYIFIRYGISWVRQAPGQGLEWMGWISANNGYTNYAQKLQGRVTMTTDTSTSTAYMELRSLRSDDTAVYYCARDGGILTGYLDYFDHWGQGTLVTVSS VL: DIQMTQSPSSLSASVGDRLTITCRASQSIASYLNWYQQKPGKAPKLLIYAASSLQSGVPSRFSGSGSGTDFTLTISSLQPEDFATYHCQQSYSTLGITFGPGTKVDIK								0.014 µg/mL	0.16 µg/mL
antibody 58 (antibody, V domains shown, also called mAb 58) VH: QVQLVESGGGLVQPGRSLRLSCAASGFTFDDYAMHWVRQPPGKGLEWVSGVSWNSGTIGYADSVKGRFIISRDNAKNSLYLQMNSLKAEDTALYYCAREVGGTFGVLISREGGLDYWGQGTLVTVSS VL: SYELTQPPSVSVAPGQTARITCGGNTIGSKSVHWYQQRPGQAPVLVVYDDSDRPSGIPERFSGSNSGNTATLTISRVEAGDEADYYCQVWDSSSDRVVFGGGTKLTVL	0.136 µg/mL	0.236 µg/mL	0.116 µg/mL	0.041 µg/mL					
antibody 158 (antibody, V domains shown, also called mAb 158) VH: EVQLLESGGDLIQPGGSLRLSCAASGVTVSSNYMSWVRQAPGKGLEWVSIIYPGGSTFYADSVKGRFTISRDNSKNTLYLQMHSLRAEDTAVYYCARDLGSGDMDVWGKGTTVTVSS VL: DIVMTQSPSFLSASVGDRVTITCRASQGISSYLAWYQQKPGKAPKLLIQAASTLQSGVPSRFSGSGSGTEFTLTISSLQPEDFATYYCQQLNSYRYTFGQGTKVEIK	> 10 µg/mL	> 10 µg/mL	0.254 µg/mL	0.031 µg/mL					
antibody 318 (antibody, V domains shown) VH: QVQLVQSGPEVKKPGTSVKVSCKASGFTLTSSAMQWVRQARGQRLEWIGWIVVGSGNTNYAQKFQERVTITRDMSTSTAYMELSSLRSEDTAVYYCAAGRGYNSDFDYWGQGTLVTVSS VL: AIRMTQSPGTLSLSPGERATLSCRASQSVSSSYLAWYQQRPGQAPRLLIYGTSSRATGIPDRFSGSGSGTDFTLTISRLEPEDFAVYYCQQYGYSVYTFGQGTKVDIK								0.029 µg/mL	0.019 µg/mL
